Experimental data taken from the supplement of paper PMC10065799, “High-throughput profiling of sequence recognition by tyrosine kinases and SH2 domains using bacterial peptide display” (eLife, 2023).

Legend:
[1] = target: c-Src SH2; experiment: SH2 binding enrichment of the phosphorylated peptide, bacterial display (enrichment ratio); higher = better substrate or ligand; peptides without Tyr show the background
[2] = target: Grb2 SH2 (UniProt P62993); experiment: as above
[3] = target: SHP2-C SH2; experiment: as above
[4] = target: MERTK (UniProt Q12866); experiment: phosphorylation enrichment, bacterial display (enrichment ratio); higher = better substrate or ligand; peptides without Tyr show the background
Sequence of MERTK (Q12866 whole entry, looked up): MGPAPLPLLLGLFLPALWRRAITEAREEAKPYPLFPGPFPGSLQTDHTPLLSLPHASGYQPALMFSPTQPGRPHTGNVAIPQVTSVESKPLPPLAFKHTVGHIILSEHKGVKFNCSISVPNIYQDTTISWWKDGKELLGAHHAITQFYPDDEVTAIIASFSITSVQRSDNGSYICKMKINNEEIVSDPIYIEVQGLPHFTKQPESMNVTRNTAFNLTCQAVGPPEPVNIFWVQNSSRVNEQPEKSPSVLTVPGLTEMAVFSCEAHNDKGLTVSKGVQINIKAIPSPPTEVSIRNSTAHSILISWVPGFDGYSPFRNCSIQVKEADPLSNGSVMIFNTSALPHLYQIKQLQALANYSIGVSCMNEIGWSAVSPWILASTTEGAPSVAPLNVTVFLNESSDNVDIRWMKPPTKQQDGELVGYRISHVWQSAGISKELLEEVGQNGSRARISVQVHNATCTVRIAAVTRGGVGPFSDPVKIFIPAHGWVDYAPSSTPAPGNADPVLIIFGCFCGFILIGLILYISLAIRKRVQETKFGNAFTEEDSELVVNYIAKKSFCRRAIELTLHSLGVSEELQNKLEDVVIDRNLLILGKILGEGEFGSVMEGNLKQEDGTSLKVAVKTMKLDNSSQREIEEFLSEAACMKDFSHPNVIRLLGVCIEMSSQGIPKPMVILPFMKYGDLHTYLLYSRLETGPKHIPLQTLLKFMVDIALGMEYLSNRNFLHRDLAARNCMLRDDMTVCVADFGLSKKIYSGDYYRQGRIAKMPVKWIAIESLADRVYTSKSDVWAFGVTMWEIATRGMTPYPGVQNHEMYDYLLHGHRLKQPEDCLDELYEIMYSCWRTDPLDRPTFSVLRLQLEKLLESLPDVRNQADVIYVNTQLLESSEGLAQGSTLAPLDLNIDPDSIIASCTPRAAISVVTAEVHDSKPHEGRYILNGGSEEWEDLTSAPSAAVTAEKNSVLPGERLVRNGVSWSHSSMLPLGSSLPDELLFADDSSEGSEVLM

[5] = target: Hck (UniProt P08631); experiment: as above
Sequence of Hck (P08631 whole entry, looked up): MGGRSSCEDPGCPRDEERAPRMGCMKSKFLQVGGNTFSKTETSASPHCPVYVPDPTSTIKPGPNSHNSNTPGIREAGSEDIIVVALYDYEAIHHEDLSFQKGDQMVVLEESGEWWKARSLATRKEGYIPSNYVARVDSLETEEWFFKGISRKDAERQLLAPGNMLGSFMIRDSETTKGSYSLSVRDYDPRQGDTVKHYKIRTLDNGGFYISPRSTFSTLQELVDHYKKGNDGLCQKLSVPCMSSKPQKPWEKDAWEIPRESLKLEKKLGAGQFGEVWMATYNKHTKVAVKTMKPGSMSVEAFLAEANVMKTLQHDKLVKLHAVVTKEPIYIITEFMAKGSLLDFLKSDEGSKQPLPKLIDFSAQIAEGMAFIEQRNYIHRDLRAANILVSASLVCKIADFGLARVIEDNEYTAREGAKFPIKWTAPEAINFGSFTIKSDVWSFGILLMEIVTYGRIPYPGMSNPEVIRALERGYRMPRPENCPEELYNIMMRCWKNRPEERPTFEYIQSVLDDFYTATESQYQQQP

[6] = system: AncSZ; experiment: as above
[7] = target: EPHB2 (UniProt P29323); experiment: as above
Sequence of EPHB2 (P29323 whole entry, looked up): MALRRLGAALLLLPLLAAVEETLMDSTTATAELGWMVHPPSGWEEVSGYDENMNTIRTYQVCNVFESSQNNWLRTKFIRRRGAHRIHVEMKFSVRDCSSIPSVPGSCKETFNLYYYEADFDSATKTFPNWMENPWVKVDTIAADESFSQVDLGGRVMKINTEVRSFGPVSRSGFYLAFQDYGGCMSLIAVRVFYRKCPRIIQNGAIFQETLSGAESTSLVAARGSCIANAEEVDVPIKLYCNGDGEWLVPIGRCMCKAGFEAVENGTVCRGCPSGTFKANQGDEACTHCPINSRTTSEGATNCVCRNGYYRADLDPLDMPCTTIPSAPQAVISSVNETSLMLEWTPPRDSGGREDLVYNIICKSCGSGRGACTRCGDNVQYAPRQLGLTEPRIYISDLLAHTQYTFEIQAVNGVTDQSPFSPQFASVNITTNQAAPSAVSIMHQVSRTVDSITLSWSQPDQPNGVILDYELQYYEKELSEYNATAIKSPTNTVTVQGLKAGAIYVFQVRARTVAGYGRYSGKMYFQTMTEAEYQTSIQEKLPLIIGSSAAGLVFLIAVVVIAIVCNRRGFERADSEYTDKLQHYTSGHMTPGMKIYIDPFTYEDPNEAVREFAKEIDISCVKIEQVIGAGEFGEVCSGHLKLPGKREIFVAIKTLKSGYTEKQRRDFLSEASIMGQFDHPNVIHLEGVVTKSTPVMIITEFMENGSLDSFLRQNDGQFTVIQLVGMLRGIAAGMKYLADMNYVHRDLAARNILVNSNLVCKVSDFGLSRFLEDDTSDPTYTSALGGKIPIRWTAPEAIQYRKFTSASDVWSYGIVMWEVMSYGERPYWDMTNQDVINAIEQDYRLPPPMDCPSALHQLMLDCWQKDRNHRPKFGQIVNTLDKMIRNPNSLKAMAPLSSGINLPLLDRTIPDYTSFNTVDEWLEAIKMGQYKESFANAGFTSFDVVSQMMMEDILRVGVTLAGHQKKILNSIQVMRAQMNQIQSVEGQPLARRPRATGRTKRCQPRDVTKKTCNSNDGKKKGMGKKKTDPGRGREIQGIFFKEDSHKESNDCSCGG

[8] = system: c-Abl (mouse); experiment: as above
[9] = target: Fyn (UniProt P06241); experiment: as above
Sequence of Fyn (P06241 whole entry, looked up): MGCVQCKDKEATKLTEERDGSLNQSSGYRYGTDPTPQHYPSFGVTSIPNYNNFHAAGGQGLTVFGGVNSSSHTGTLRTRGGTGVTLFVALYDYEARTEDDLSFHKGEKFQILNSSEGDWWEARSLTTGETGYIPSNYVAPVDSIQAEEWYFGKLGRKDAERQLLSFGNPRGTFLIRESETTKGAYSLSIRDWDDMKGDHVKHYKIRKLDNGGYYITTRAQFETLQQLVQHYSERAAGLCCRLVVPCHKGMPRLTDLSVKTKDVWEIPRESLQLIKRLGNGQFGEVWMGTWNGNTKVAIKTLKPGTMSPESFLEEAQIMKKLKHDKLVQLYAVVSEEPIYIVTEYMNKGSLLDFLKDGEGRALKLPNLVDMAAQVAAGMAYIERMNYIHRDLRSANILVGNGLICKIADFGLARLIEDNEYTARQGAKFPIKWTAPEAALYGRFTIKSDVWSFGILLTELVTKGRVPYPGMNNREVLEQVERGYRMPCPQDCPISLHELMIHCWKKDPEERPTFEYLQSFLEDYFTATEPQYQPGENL

[10] = system: c-Src; experiment: as above
[11] = target: Jak2 (UniProt O60674); experiment: as above
Sequence of Jak2 (O60674 whole entry, looked up): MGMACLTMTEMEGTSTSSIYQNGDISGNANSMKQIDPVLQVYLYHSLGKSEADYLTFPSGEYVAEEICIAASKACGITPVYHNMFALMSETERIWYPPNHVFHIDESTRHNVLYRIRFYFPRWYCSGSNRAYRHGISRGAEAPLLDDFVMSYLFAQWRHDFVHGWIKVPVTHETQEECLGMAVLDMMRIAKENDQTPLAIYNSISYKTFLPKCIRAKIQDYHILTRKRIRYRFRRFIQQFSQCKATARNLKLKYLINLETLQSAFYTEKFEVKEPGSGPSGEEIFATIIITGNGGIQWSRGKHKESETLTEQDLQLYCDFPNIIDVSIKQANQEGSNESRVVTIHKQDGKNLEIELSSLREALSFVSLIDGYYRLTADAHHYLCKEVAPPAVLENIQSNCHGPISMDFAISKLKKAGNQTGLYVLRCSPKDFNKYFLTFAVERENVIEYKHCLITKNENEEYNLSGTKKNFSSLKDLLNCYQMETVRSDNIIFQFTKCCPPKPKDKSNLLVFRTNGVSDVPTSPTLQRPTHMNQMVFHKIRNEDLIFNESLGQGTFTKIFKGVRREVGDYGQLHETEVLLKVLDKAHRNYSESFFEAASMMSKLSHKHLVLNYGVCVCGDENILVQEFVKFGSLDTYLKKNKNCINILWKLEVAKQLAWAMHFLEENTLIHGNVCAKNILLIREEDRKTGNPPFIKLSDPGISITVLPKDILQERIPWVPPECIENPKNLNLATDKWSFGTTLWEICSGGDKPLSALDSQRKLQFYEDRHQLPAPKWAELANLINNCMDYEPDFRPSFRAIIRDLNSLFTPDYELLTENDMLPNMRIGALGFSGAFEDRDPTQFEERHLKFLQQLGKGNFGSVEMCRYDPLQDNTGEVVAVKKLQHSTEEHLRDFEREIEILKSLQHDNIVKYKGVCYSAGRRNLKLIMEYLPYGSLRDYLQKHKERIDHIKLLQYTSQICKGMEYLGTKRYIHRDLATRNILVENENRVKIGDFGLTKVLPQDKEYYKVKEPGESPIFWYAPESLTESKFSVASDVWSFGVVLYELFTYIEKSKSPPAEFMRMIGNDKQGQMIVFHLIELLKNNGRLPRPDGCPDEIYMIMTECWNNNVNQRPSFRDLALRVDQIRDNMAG

[12] = target: EPHB1 (UniProt P54762); experiment: as above
[13] = target: FGFR3 (UniProt P22607); experiment: as above
[14] = target: FGFR1 (UniProt P11362); experiment: as above
[15] = target: Fes (UniProt P07332); experiment: as above
[16] = system: Fer (mouse); experiment: as above
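Throughout, for SH2 binding enrichment of the phosphorylated peptide, bacterial display: peptide library displayed on the E. coli surface as eCPX fusions, selected cells deep-sequenced, score is each peptide's frequency after selection divided by its frequency in the input.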
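Throughout, for phosphorylation enrichment, bacterial display: 11-residue human phosphosite peptides and single-mutation variants displayed on the E. coli surface, counted by deep sequencing, each peptide's frequency after selection divided by its frequency in the unselected input library; frequency after pTyr selection over input frequency; kinase dosed for 20-30% of maximal phosphorylation in three min.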

Sequence of Grb2 SH2 (P62993 whole entry, looked up): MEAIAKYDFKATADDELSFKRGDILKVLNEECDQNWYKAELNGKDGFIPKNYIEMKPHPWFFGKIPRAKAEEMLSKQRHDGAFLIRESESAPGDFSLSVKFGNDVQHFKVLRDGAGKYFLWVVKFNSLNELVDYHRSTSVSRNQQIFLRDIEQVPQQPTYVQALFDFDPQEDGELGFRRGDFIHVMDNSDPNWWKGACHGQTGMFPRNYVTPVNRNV

Sequence | SH2 binding enrichment [1] | SH2 binding enrichment [2] | SH2 binding enrichment [3] | phosphorylation enrichment [4] | phosphorylation enrichment [5] | phosphorylation enrichment [6] | phosphorylation enrichment [7] | phosphorylation enrichment [8] | phosphorylation enrichment [9] | phosphorylation enrichment [10] | phosphorylation enrichment [11] | phosphorylation enrichment [12] | phosphorylation enrichment [13] | phosphorylation enrichment [14] | phosphorylation enrichment [15] | phosphorylation enrichment [16]
QGLRLYRSHLA [BTK_Y617_P619S] | 1.03 | 1.21 | 0.888 | 0.417 | 0.38 | 0.935 | 0.408 | 0.801 | 0.571 | 0.51 | 0.75 | 0.718 | 0.5 | 0.552 | 1.04 | 0.527
KERNQYGEVMV [MMP21_Y347] | 0.391 | 0.93 | 0.825 | 0.404 | 0.507 | 0.587 | 0.436 | 0.683 | 1.39 | 0.744 | 0.547 | 0.455 | 0.463 | 0.502 | 0.734 | 0.653
WFPANYVKLLS [ITSN1_Y1132] | 0.893 | 1.02 | 2.25 | 0.569 | 0.549 | 0.785 | 1.52 | 0.596 | 0.419 | 0.399 | 1.51 | 4.12 | 0.825 | 0.763 | 0.841 | 0.518
SVVVPYEPPEF [TP53_Y220_V225F] | 0.987 | 0.88 | 0.658 | 0.374 | 0.461 | 1.01 | 0.524 | 0.743 | 0.427 | 0.509 | 0.993 | 0.558 | 0.598 | 0.49 | 1.05 | 0.449
KDGNGYISAAE [CALM1_Y100] | 0.571 | 0.742 | 0.746 | 0.47 | 0.542 | 0.646 | 0.491 | 0.546 | 0.463 | 0.416 | 0.685 | 0.394 | 0.594 | 0.477 | 0.76 | 0.389
NIRKKYFRAIL [CHD7_Y1217_Q1214R_YF] | 0.356 | 0.764 | 0.544 | 0.555 | 0.451 | 0.583 | 0.6 | 0.633 | 0.45 | 0.504 | 0.496 | 0.466 | 0.546 | 0.48 | 0.661 | 0.394
FSGQVYRQRRK [TH_Y230_D227G] | 0.244 | 0.675 | 0.472 | 1 | 0.718 | 0.855 | 0.772 | 0.789 | 0.774 | 1.13 | 0.769 | 0.604 | 0.64 | 0.546 | 0.697 | 0.582
RTLTHYKSAVK [ASNS_Y555] | 0.545 | 0.934 | 0.83 | 0.702 | 0.5 | 0.532 | 0.411 | 0.563 | 0.35 | 0.588 | 0.801 | 0.678 | 0.545 | 0.35 | 0.813 | 0.312
FDDIAYIQKTL [PIK3CA_Y1021_R1023Q] | 0.626 | 0.939 | 0.939 | 0.529 | 0.488 | 0.832 | 0.68 | 0.591 | 0.479 | 0.485 | 0.952 | 0.425 | 0.6 | 0.503 | 0.819 | 0.352
FAELMYTGFWH [ASS1_Y322_V321M] | 0.538 | 0.918 | 0.816 | 7.12 | 4.7 | 2.17 | 4.76 | 3.16 | 6.85 | 6.43 | 2.02 | 3.52 | 2.02 | 2.32 | 1.67 | 5.42
MSRNLYSGDFF [DDR2_Y736_YF] | 0.773 | 0.83 | 0.611 | 9.92 | 5.38 | 0.825 | 10 | 0.797 | 5.54 | 4.14 | 0.655 | 7.35 | 2.16 | 2.41 | 0.98 | 1.57
CTTIHYNFMHN [TP53_Y234_C238H_YF] | 0.85 | 1.07 | 0.836 | 0.454 | 0.517 | 0.829 | 0.54 | 0.765 | 0.566 | 0.432 | 0.799 | 0.583 | 0.676 | 0.457 | 1 | 0.463
LNPLIYTLRNA [OR4C46_Y285_K288R] | 0.521 | 0.798 | 0.738 | 1.97 | 7.15 | 1.79 | 0.9 | 1.76 | 4.69 | 6.62 | 1.31 | 0.576 | 0.863 | 0.922 | 1.12 | 1.03
FPKDVYVDSKD [NDUFAF4_Y69_L65P] | 0.542 | 1.13 | 0.821 | 0.377 | 0.444 | 0.868 | 0.36 | 0.543 | 0.409 | 0.416 | 0.769 | 0.38 | 0.59 | 0.588 | 0.839 | 0.367
AEFGLYAAMVR [VSX2_Y222_G223A_YF] | 0.494 | 0.898 | 0.581 | 2.69 | 4.34 | 1.29 | 2.14 | 1.09 | 2.44 | 2.17 | 1.54 | 2.79 | 0.888 | 0.614 | 1.24 | 1.4
ENGPFYTSFPP [GDAP2_Y488_YF] | 0.83 | 0.813 | 0.711 | 13.1 | 7.05 | 1.12 | 2.41 | 8.39 | 8.74 | 6.71 | 1.61 | 2.92 | 2.62 | 3.86 | 1.04 | 4.74
